Laboratory results as given in patent publication US20120253017A1.

Tests used:
[1] = molecular target: human Stem Cell Factor, 6xHIS tag (human) (UniProt P21583); test: BIAcore, SCF on CM5 chip
[2] = molecular target: mouse Stem Cell Factor, 6xHIS tag (mouse) (UniProt P20826); test: BIAcore, SCF on CM5 chip
[3] = molecular target: mouse c-kit (recombinant, on BIAcore chip) (mouse) (UniProt P05532); test: BIAcore, mouse cKIT on high density CM5 chip
[4] = molecular target: mouse Stem Cell Factor, 6xHIS tag (mouse) (UniProt P20826); test: BIAcore, SCF on high density CM5 chip
[5] = molecular target: rat Stem Cell Factor, GlySerHis(6) tag (rat) (UniProt P21581); test: BIAcore, SCF on high density CM5 chip
Chain of rat Stem Cell Factor, GlySerHis(6) tag (rat) (P21581 other isoform, or with tags, fused parts or gaps limits assumed): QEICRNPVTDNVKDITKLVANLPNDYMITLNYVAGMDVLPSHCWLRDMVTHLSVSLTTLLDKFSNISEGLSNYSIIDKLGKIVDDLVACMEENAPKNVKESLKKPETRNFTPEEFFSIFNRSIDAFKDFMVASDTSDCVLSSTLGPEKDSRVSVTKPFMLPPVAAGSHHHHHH

Chain of mouse Stem Cell Factor, 6xHIS tag (mouse) (P20826 26-190 limits assumed): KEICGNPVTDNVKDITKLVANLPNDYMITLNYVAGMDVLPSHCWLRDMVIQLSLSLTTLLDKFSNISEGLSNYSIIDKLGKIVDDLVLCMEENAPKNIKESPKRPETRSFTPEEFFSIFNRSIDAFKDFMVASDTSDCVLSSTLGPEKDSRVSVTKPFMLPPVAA
Chain of human Stem Cell Factor, 6xHIS tag (human) (P21583 26-190 limits assumed): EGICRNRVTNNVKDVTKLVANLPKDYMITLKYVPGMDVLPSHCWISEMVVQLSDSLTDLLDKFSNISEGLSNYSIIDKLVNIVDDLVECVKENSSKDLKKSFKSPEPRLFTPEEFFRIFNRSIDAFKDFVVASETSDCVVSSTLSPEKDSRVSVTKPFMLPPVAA

Q: Which results are given for “Cyno cKIT ECD-Fc (from UniProt O95905) (Fc fusion)”?
A: Kd [1]: 9.78 nM; Kd [2]: 15 nM

Q: Which response (RU) [3] does the source give for anti mouse cKIT antibody clone 2B8 here?
A: 100 RU

Q: “mcKIT GNNK+ E207A (from UniProt P05532 25-527) (Fc fusion)” was tested. Which Kd [4] did it give?
A: 26 nM

Q: And the Kd [5]?
A: 81 nM
